Laboratory results published in article PMC5891081.
Each block holds one molecule with its values, some of them ahead of it.

Tests used:
[1] = target: GAL4-DBD-fused RAD52 (10xQ) (human) (UniProt P43351); assay: two-hybrid; yeast; GAL4 DBD-fused RAD52 with NLS-GAL4 AD fusions; lacZ reporter, liquid beta-galactosidase assay, activity relative to RAD52 (Wt)
RAD52 wild type = target: T1, RAD52 wild type (Homo sapiens, UniProt P43351 1-418); assay: EMSA; 10 uM nucleotides DNA; 16 uL reactions, Cy5-50-mer 10 uM in nucleotides; 5X buffer contains 0.1 M HEPES-NaOH pH 7.5 (20 mM final if 1X); remaining components, salt and temperature cut off in the material; details: protein: recombinant; tags: C-terminal His6 construct (pET21a) or pET15b construct; label: 5'-Cy5; single strand, 50 nt
T1 sequence: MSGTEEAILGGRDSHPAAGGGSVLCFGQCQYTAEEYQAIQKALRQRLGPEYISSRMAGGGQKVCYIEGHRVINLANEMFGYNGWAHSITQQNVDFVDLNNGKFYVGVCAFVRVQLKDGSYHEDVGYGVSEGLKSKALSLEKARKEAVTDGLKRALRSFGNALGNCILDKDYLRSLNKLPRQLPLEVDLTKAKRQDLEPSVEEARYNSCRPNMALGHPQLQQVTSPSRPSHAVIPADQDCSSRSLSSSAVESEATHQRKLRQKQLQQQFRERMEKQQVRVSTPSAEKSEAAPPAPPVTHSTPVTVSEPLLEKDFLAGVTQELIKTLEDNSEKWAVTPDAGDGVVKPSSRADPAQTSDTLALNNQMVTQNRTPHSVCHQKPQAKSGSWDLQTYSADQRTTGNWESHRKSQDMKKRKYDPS

fold change of beta-galactosidase activity against RAD52 (Wt) [1]: 1.7 fold
Molecule: GAL4-DBD-fused RAD52 (10xQ) (from UniProt P43351 1-418) (natural protein)

B1: FX174-50-1 (oligo 1) (ssDNA)
DNA: TCGCCATCAACTAACGATTCTGTCAAAAACTGACGCGTTGGATGAGGAGA
binding result (RAD52 wild type): binds
